# Data reported in the supplement of paper PMC10724198.
# ± gives the standard deviation of the averaged measurements.
# Test system: Saccharomyces cerevisiae
# Test: protein stability index of tFT-peptide fusion (C-terminal peptide) (PSI (0-1 scale)); higher = more stable (slower turnover)
# Conditions: temperature: 30 C
# Description: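 MPS profiling in S. cerevisiae of the yeast C-terminome library: the last 12 aa of each annotated ORF are fused to the C-terminus of a sfGFP-mCherry timer, after a GGGS linker. Cells are FACS-sorted into 8 mCherry/sfGFP bins and deep-sequenced. PSI runs from 0 (unstable) to 1 (stable); wild type and das1Δ backgrounds, two technical replicates each.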
# [1] = genetic background: das1 deletion
Sequence,protein stability index [1],protein stability index (genetic background: wild type)
AAKYLNSLSVNQ [PTP1 C-terminal 12 aa],0.698 ± 0.029,0.686 ± 0.043
SKREFIESLRPK [SKG1 C-terminal 12 aa],0.707 ± 0.029,0.679 ± 0.03
INDNNENASNSV [GLD1 C-terminal 12 aa],0.6943 ± 0.0069,0.676 ± 0.024
LSRYTRVLLMFM [YBR178W C-terminal 12 aa],0.632 ± 0.02,0.455 ± 0.014
DLAERLAETEIK [RNA1 C-terminal 12 aa],0.703 ± 0.0088,0.692 ± 0.024
KTHRSRSSRKGN [YMR135W-A C-terminal 12 aa],0.6834 ± 0.0026,0.704 ± 0.023
FIRKIYSAIKVE [TMN2 C-terminal 12 aa],0.385 ± 0.012,0.268 ± 0.016
PIKIIYNNKCPS [YLL006W-A C-terminal 12 aa],0.709 ± 0.02,0.688 ± 0.0074
KGGRLSSKPIIM [SPT3 C-terminal 12 aa],0.683 ± 0.019,0.686 ± 0.034
RVRRRLFAPEST [SLD3 C-terminal 12 aa],0.716 ± 0.018,0.802 ± 0.075
LWVTLLPEFTNF [YBR121C-A C-terminal 12 aa],0.768 ± 0.018,0.75 ± 0.029
ICCQVAKSLLKI [YGL074C C-terminal 12 aa],0.656 ± 0.016,0.688 ± 0.027
AESPEEADVEMS [PUP2 C-terminal 12 aa],0.6788 ± 0.0056,0.707 ± 0.052
EKVIDGSIEHSS [YNR061C C-terminal 12 aa],0.6642 ± 0.0044,0.703 ± 0.017
DSERKVLSEALL [KAP114 C-terminal 12 aa],0.676 ± 0.013,0.6846 ± 0.0027
KRRPYVRAHAKW [YGR051C C-terminal 12 aa],0.7089 ± 0.0043,0.698 ± 0.05
KGVFWDPACVIA [MFA1 C-terminal 12 aa],0.731 ± 0.0082,0.713 ± 0.031

Sequence,protein stability index [1],protein stability index (genetic background: wild type)
LTTISLYLMLKL [YGL262W C-terminal 12 aa],0.382 ± 0.021,0.351 ± 0.0079
IRKPDDKFSSFI [YOR072W C-terminal 12 aa],0.702 ± 0.0082,0.706 ± 0.032
GDIIKLRESVNA [YJL215C C-terminal 12 aa],0.6729 ± 0.0061,0.73 ± 0.05
LAFIAACKKYIY [IKS1 C-terminal 12 aa],0.696 ± 0.023,0.487 ± 0.026
SVFCRNYPSFLL [YMR086C-A C-terminal 12 aa],0.697 ± 0.011,0.7 ± 0.035
FEDCCRWNEKQG [HIS6 C-terminal 12 aa],0.668 ± 0.022,0.694 ± 0.016
DWEAIDAQTIKL [FAT1 C-terminal 12 aa],0.746 ± 0.0075,0.768 ± 0.021
KQRFLLCWSTKL [YHR131W-A C-terminal 12 aa],0.693 ± 0.034,0.55 ± 0.04
WKLAKLQIDEAL [SNX41 C-terminal 12 aa],0.693 ± 0.0081,0.6896 ± 0.0063
KIVSGLVRTNSS [YIL060W C-terminal 12 aa],0.703 ± 0.019,0.717 ± 0.024
SMHAFLCKIYKR [YCR095W-A C-terminal 12 aa],0.701 ± 0.02,0.6761 ± 0.0035
VRADDLSTRFNI [RRP43 C-terminal 12 aa],0.657 ± 0.0082,0.664 ± 0.017
SVEEAFQLKSFD [LAA1 C-terminal 12 aa],0.713 ± 0.0014,0.715 ± 0.056
STTKQQSQEAVA [YHL026C C-terminal 12 aa],0.704 ± 0.027,0.689 ± 0.054
IHNDIPSHRKLK [FIR1 C-terminal 12 aa],0.699 ± 0.022,0.6589 ± 0.0014
LYFLVKSFLSIV [HMX1 C-terminal 12 aa],0.668 ± 0.14,0.282 ± 0.12
